Source: US20210032330A1 (PHANES THERAPEUTICS, published 2021)

Assays:
[1] = target: T1, human T-cell immunoglobulin and mucin-domain containing molecule 3 (TIM-3) (human, UniProt Q8TDQ0 22-200, limits assumed); test: competition ELISA: pre-equilibrated mixture of mAb and human TIM3(ECD)-huFc on plate-coated phosphatidylserine (PtdSer, a lipid), anti-huFc-HRP detection, % inhibition
T1 construct: also called Human TIM-3
Experimental: (§1) ELISA plates were coated with PtdSer or PtdChol, washed and incubated with a pre-equilibrated mixture of purified antibodies at various concentrations and TIM3(ECD)-huFc. The plates were washed and then the signal was detected by incubation with HRP-coupled anti-huFc secondary antibody and then a HRP substrate. TIM-3 binding to PtdSer was used as 100% signal and TIM-3 binding to PtdChol as zero (background) to calculate percent of inhibition by a given mAb.
(§2) To determine the effect of anti-TIM-3 antibodies on the interaction of TIM-3 with phosphatidylserine (PtdSer), 384-well ELISA plates were coated with PtdSer or phosphatidylcholine (PtdChol) at room temperature. The wells were washed using PBS supplemented with 0.1% Tween-20 and then blocked using PBS supplemented with 2% bovine serum albumin (BSA). […] The plates were washed and then incubated with HRP-coupled anti-huFc secondary antibody. Plates were washed, incubated with an HRP substrate, and read using a POLARstar Omega Microplate (BMG LABTECH). The assay was performed in triplicate.

[2] = target: T1, human T-cell immunoglobulin and …; test: as above; remark: listed apart in the source
Experimental: as §1, §2

[3] = target: T1, human T-cell immunoglobulin and …; test: FACS on HEK293 cells transiently transfected with human TIM-3 (HuTIM-3 cells) against parental HEK293 cells (CTL cells), anti-mouse AlexaFluor488 secondary, MFI
Experimental: The binding of purified anti-TIM-3 mAbs to HEK293 cells transiently transfected with human TIM-3 (labeled as “HuTIM-3 cells”) or parental HEK293 cells (labeled as “CTL cells”) was tested by FACS at 3 different concentrations. An anti-mouse secondary Ab AlexaFluor488 was used for detection.
A human TIM-3-expressing plasmid was made and transiently transfected into HEK293T cells. After approximately 48 hours, cells were transferred to a 384-well V-bottom plate. Cells were washed with ice-cold FACS buffer (PBS supplemented with 1% BSA) and incubated with purified mAbs with gentle agitation at 4° C. for 45 minutes. The cells were washed with FACS buffer and incubated with an anti-mouse secondary Ab AlexaFluor488. The cells were washed and analyzed by FACS.

Binder | binding result [1] | IC50 (read off the curve) [2] [nM] | binding result [3]
7-P15-A (antibody, V domains shown, also called anti-TIM-3 monoclonal antibody 7-P15-A) VH: QIQLVQSGPELKKPGETVKISCKASGYTFTNYGMNWVKQAPGKGLKWMGWINTYTGEPTYADDFKGRFAFSLETSASTAYLQINNLKNEDTATYFCARDLMDYWGQGTTLTVSS VL: DVVMTQTPLSLPVSLGDQASISCRSSQSLVHSNGNTYLHWYLQKPGQSPKLLIYKVSNRFSGVPDRFSGSGSGTDFTLKITRVEAEDLGVYFCSQSIHVPYTFGGGTKLEIK | binds |  | 
19-A14-A (antibody, V domains shown, also called anti-TIM-3 monoclonal antibody 19-A14-A) VH: DVQLQGSGPGLVKPSQSLSLTCTVTGYSITSDYAWNWIRQFPGNILEWMGYISYSGSTSYNPSLKSRISITRDTSKNQFFLQLNSVTTEDTATYYCARDGRYDYYAMDYWGQGTSVTVSS VL: not shown |  | ~7 | 
12-G18-A (antibody, V domains shown, also called anti-TIM-3 monoclonal antibody 12-G18-A) VH: DVQLQESGPGLVKPSQSLSLTCTVTGYSITSDYAWNWIRQFPGNKLEWMGYISYSGSTSYNPSLKSRISITRDTSKNQFFLQLNSVTIGDTATYYCASNYRYDYWFFGVWGAGTTVTVSS VL: not shown |  | ~6 | 

Continued, values first:

binding result [1] | IC50 (read off the curve) [2] [nM] | binding result [3] | Binder
 |  | binds | 2-K2-A (antibody, V domains shown, also called anti-TIM-3 monoclonal antibody 2-K2-A) VH: QVQLQQSGAELAKPGASVKMSCKASGYTFTTYWMHWVKQRPGQGLEWIGYINPSTGYTEYNQKFKDKSTLTADKSSSTAYMQLSSLTSEDSAVYYCANDHEGGFAYWGQGTLVTVSA VL: DILMTQSPSSMSVSLGDTVSITCHASQGISSNIGWLQQKPGKSFKGLIYHGTNLEDGVPSRFSGSGSGADYSLTISSLESEDFADYYCVQYAQFPFTFGSGTKLEIK
binds |  |  | 18-O22-A (antibody, V domains shown, also called anti-TIM-3 monoclonal antibody 18-O22-A) VH: EVQLQQSGPELVKPGASVKVSCKASGYTFTSYVMHWVKQKPGQGLEWIGYINPYNDVTKYNEKFKGKATLTSDKSSSTAYMELSSLTSEDSAVYYCARSSDYDDGHWYFDVWGAGTTVTVSS VL: DIVLTQSPASLAVSLGQRATISCKASQSVDYDGESYMNWYQQKPGQPPKLLIYVASNLESGIPVRFSGSGSGTDFTLNIHPVEEEDAATYYCQQSNEDPTWTFGGGTKLEIK
 |  | binds | 5-C11-A (antibody, V domains shown, also called anti-TIM-3 monoclonal antibody 5-C11-A) VH: EVQLVESGGGLVKPGGSLKLSCAASGFTFSDFYMYWVRQTPEKRLEWVATISDGGSYTYYPDSVKGRFTISRDNAKNNLYLQMSSLKSEDTAMYYCASGYYYGSDYVMDYWGQGTSVTVSS VL: DIVMSQSPSSLAVSAGEKVTMSCKSSQSLLNSRTRKNYLAWYQQKPGQSPKLLIYWASTRESGVPDRFTGSGSGTDFTLTISSVQADDLAVYYCKQSYNLLTFGAGTKLELK
